Reference: patent publication US20250090639A1, “CONTROLLED-RELEASE CNP AGONISTS WITH LOW INITIAL NPR-B ACTIVITY” (priority 2016, published 2025)

Experiments:
recombinant human NEP = molecular target: T1, recombinant human NEP (Homo sapiens, UniProt P08473); assay: Digest of CNP variants by Neutral Endopeptidase in vitro; assay type: in vitro ADME; settings: 100 μg CNP equivalents/mL, pH 7.4, 37° C., up to 4 days, normalized to mean CNP-34 or CNP-38 half life
T1 construct: purchased Enzo Life Sciences GmbH, Lörrach, Germany
Excerpt: Samples were taken at different time intervals. […] The resulting reaction products were assigned using HPLC-MS.

[1] = Pharmacokinetic profile of conjugate 11i after subcutaneous single-dose administration to cynomolgus monkeys; assay type: in vivo; settings: single s.c. 40 μg CNP-38 eq/kg
Experimental: As internal standard deuterated CNP-38 conjugate was used.
After 3 hours incubation at 37° C. […] 10 μL were injected into the UHPLC-MS system.

[2] = Evaluation of cardiovascular effects in the conscious telemetered mouse (subcutaneous administration); assay type: in vivo, Male Crl: CD1(1CR) mice; settings: 800 μg CNP-38 (eq)/kg sc
Experimental: Male Crl: CD1(1CR) mice (age range 8-13 weeks and body weight range 27.3-35.6 g at start of dosing) were surgically implanted with a TA11PA-C10 telemetry transmitter (Data Sciences International (DSI)) in the carotid artery. The body of the transmitter was placed subcutaneously in the lateral flank of the mouse. The mice were dosed subcutaneously in a latin square crossover design with at least 72 hours between dosing occasions. […] At least four mice were included at each dose level. Blood pressure (systolic (SAP), diastolic (DAP) and mean (MAP) and heart rate (HR, derived from blood pressure), were recorded using a digital data capture system linked with a DSITM Ponemah data acquisition and analysis system. The capture system allowed recording of the cardiovascular parameters whilst the mice were in individual cages. On the day of each test session the animals were weighed and a predose recording was performed for at least 60 min prior to dosing. Each mouse was returned to the home cage and the cardiovascular parameters were recorded for approximately 48 hours postdose. Blood pressure and HR were reported at the following time points: −30, −20, −10, 5, 15 and 30 min postdose and 1, 2, 6, 12, 18, 24, 30, 36, 42 and 48 hours postdose. Each time point was presented as the average value of five minute's recording prior to the time point. […]

T1 sequence (P08473 whole entry): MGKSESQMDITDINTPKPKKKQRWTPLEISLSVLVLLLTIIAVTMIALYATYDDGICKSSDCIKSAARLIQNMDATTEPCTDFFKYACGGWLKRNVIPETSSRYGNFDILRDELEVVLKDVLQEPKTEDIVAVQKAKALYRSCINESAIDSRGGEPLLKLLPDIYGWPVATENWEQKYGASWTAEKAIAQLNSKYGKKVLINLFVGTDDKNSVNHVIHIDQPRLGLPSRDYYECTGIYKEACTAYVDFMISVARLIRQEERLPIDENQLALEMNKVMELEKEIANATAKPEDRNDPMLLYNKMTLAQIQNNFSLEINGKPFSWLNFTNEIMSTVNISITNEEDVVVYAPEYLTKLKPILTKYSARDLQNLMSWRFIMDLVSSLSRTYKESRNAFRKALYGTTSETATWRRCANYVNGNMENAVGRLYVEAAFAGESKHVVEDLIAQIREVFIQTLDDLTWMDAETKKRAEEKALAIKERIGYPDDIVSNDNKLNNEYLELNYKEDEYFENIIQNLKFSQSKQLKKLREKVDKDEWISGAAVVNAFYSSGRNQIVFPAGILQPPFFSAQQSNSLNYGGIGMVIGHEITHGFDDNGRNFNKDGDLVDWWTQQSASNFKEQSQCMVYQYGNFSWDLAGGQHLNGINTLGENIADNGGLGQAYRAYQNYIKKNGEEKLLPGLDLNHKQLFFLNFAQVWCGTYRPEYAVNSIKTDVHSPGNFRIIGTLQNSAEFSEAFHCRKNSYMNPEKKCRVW

Molecule | half life norm. (recombinant human NEP) | further results
Permanent Lys26 CNP-38 PEG4×10 kDa Conjugate [Conjugate 12g] | Almost no proteolysis | 
Permanent Lys22 CNP-34 PEG 5 kDa Conjugate [Conjugate 18e] | 38.87 h | 
Reversible Lys26 CNP-38 PEG4×10 kDa Conjugate [Conjugate 11i] |  | tolerability [1]: well tolerated
Permanent N-Terminal CNP-34 PEG 5 kDa Conjugate [Conjugate 14e] | Almost no proteolysis | 
Permanent Lys26 CNP-38 PEG 5 kDa Conjugate [Conjugate 19e] | 62.76 h | 
CC[C@H](C)[C@@H]1NC(=O)[C@H](CCCNC(=N)N)NC(=O)[C@H](CC(=O)O)NC(=O)[C@H](CC(C)C)NC(=O)[C@H](CCCCN)NC(=O)[C@H](CC(C)C)NC(=O)CNC(=O)[C@H](Cc2ccccc2)NC(=O)[C@@H](NC(=O)CNC(=O)[C@H](CCCCN)NC(=O)[C@H](CO)NC(=O)[C@H](CC(C)C)NC(=O)CNC(=O)[C@H](CCCCN)NC(=O)[C@H](CCCCN)NC(=O)[C@H](CC(N)=O)NC(=O)[C@H](C)NC(=O)CNC(=O)[C@H](CCCCN)NC(=O)[C@H](Cc2ccc(O)cc2)NC(=O)[C@H](CCCCN)NC(=O)[C@H](CCCNC(=N)N)NC(=O)[C@H](C)NC(=O)[C@H](CC(N)=O)NC(=O)[C@@H]2CCCN2C(=O)[C@H](Cc2c[nH]cn2)NC(=O)[C@H](CCC(=O)O)NC(=O)[C@H](CCC(N)=O)NC(=O)[C@@H](N)CC(C)C)CSSC[C@@H](C(=O)O)NC(=O)CNC(=O)[C@H](CC(C)C)NC(=O)CNC(=O)[C@H](CO)NC(=O)[C@H](CCSC)NC(=O)[C@H](CO)NC(=O)CNC1=O [CNP-38, reference compound] |  | effect on HR [2]: not impacted; effect on MAP / blood pressure ([2]; 5, 15 and 30 min post dose): significant decrease in MAP
Permanent Lys16 CNP-34 PEG 5 kDa Conjugate [Conjugate 17e] | 54.23 h | 
Permanent N-Terminal CNP-38 PEG 5 kDa Conjugate [Conjugate 15e] | Almost no proteolysis | 
